For orientation: Kd means the concentration at which binding is half-saturated. The term koff denotes a measure of how fast the partners let go of each other. In general, kon refers to the second-order rate constant of association.

The target of test [1] is T1, human FAP recombinant protein (human, UniProt Q12884 26-760).
T1 construct: The protein was biotinylated with sulfo-NHS-SS-biotin for bio-layer interferometry; also called extracellular domain of human FAP with N-terminal His6-tag
T1 sequence: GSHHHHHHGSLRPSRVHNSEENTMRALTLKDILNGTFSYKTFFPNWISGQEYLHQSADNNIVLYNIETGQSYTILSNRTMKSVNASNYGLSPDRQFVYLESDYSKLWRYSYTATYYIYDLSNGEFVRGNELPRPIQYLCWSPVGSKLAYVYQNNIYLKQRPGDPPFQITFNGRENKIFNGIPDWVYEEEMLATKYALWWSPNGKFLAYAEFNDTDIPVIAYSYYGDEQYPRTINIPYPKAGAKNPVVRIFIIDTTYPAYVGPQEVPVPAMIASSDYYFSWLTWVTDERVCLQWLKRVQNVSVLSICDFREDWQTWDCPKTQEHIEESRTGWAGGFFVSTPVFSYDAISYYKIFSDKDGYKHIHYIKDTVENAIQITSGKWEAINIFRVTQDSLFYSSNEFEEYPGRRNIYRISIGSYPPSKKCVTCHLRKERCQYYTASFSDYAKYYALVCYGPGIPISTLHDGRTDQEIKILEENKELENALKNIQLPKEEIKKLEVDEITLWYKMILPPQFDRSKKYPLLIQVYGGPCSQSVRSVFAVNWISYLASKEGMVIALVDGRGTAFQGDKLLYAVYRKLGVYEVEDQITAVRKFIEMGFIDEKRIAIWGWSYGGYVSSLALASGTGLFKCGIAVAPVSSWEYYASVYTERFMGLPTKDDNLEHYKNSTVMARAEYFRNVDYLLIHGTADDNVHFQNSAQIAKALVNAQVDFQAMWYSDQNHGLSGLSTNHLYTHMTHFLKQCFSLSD
As to the kind of experiment: bio-layer interferometry, biotinylated human FAP on sensor. How it is done: The kinetic parameters of antigen binding by purified VHHs were determined via bio-layer interferometry with an Octet RED96 instrument (ForteBio). The assay was performed at 25° C. with shaking at 1000 rpm. Streptavidin coated SA sensors were equilibrated in assay buffer (HBS supplemented with 0.5% BSA, 0.1% Tween), before loading for 5 min with the biotinylated FAP recombinant protein at a concentration of 5 μg/ml. His₆-tagged VHHs were analyzed in a threefold serial dilution from 30 nM to 0.4 nM in assay buffer (except for VHH B3 binding murine FAP recombinant protein, for which a fivefold serial dilution from 1000 nM to 1.6 nM was employed). First the baseline was measured for 180 s in assay buffer, followed by 5 subsequent association phases of 180 s with the VHH preparations in increasing order of concentration, with 75 s intermediate dissociation phases in assay buffer in between, and a final dissociation phase in assay buffer of 30 min. […]
Binding curves were exported and analyzed using the BIAevaluation analysis software (GE Healthcare). […]
(§1) Table 7 gives an overview of the kinetic parameters of antigen binding for His₆-tagged VHHs B1, B2, B3 and B4 (SEQ ID NO: 21-24), as determined by bio-layer interferometry with biotinylated human or murine FAP recombinant protein that was loaded on the sensor.
For orientation: In BLI a coated tip is dipped into the sample, and binding shifts an interference pattern.

The target in test [2] is T2, murine FAP recombinant protein (murine, UniProt P97321 26-761).
T2 construct: The protein was biotinylated for bio-layer interferometry; also called extracellular domain of murine FAP with N-terminal His6-tag
T2 sequence: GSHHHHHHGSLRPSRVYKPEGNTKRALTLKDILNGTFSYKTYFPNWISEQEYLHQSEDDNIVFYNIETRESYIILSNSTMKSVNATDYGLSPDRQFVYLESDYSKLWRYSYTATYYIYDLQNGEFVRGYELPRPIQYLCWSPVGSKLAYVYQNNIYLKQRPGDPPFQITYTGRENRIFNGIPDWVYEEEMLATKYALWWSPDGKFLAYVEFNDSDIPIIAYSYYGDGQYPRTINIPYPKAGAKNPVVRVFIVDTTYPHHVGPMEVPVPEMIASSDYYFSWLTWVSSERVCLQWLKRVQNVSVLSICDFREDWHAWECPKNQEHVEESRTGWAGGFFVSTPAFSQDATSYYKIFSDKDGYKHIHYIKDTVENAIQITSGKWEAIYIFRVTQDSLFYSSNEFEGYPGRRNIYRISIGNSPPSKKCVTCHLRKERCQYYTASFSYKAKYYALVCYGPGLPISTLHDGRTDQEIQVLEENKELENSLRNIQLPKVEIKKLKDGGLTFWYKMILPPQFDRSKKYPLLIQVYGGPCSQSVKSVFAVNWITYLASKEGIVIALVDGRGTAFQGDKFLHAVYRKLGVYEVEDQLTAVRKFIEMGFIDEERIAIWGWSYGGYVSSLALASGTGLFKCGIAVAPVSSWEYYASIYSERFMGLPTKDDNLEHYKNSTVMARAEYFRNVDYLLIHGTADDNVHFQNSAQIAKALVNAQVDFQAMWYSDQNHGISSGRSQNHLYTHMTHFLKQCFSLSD
As to the kind of experiment: bio-layer interferometry (Octet RED96), biotinylated murine FAP on streptavidin sensor, kinetic titration, 25 °C. The procedure:
(§2) The kinetic parameters of antigen binding by purified VHHs were determined via bio-layer interferometry with an Octet RED96 instrument (ForteBio). The assay was performed at 25° C. with shaking at 1000 rpm. Streptavidin coated SA sensors were equilibrated in assay buffer (HBS supplemented with 0.5% BSA, 0.1% Tween), before loading for 5 min with the biotinylated FAP recombinant protein at a concentration of 5 μg/ml. His₆-tagged VHHs were analyzed in a threefold serial dilution from 30 nM to 0.4 nM in assay buffer (except for VHH B3 binding murine FAP recombinant protein, for which a fivefold serial dilution from 1000 nM to 1.6 nM was employed). First the baseline was measured for 180 s in assay buffer, followed by 5 subsequent association phases of 180 s with the VHH preparations in increasing order of concentration, with 75 s intermediate dissociation phases in assay buffer in between, and a final dissociation phase in assay buffer of 30 min. In every assay a reference sensor loaded with FAP recombinant protein was included that was incubated in assay buffer during the association phases.
(§3) Binding curves were exported and analyzed using the BIAevaluation analysis software (GE Healthcare). First the y-axes of the different curves were aligned to the median of the last 5 s of the baseline measurement. Subsequently, the sensorgram of the reference sensor was subtracted from all other sensorgrams. The resulting binding curve was fitted using a general fit with the ‘kinetic titration with drift’ binding model (1:1 (antigen:analyte) model; Karlsson, R. et al (2006), Analyzing a kinetic titration series using affinity biosensors. Analytical Biochemistry 349: 136-147), with Rmax fitted global, RI local and drift set to 0.
as §1

Test [3] addresses T1, human FAP recombinant protein. As to the kind of experiment: bio-layer interferometry (Octet RED96), biotinylated human FAP on streptavidin sensor, kinetic titration, 25 °C. The procedure:
as §2, §3, §1

For test [4], the target named is T3, murine FAP expressed on cells (murine, UniProt P97321 1-761).
T3 construct: also called murine FAP cell surface protein
T3 sequence: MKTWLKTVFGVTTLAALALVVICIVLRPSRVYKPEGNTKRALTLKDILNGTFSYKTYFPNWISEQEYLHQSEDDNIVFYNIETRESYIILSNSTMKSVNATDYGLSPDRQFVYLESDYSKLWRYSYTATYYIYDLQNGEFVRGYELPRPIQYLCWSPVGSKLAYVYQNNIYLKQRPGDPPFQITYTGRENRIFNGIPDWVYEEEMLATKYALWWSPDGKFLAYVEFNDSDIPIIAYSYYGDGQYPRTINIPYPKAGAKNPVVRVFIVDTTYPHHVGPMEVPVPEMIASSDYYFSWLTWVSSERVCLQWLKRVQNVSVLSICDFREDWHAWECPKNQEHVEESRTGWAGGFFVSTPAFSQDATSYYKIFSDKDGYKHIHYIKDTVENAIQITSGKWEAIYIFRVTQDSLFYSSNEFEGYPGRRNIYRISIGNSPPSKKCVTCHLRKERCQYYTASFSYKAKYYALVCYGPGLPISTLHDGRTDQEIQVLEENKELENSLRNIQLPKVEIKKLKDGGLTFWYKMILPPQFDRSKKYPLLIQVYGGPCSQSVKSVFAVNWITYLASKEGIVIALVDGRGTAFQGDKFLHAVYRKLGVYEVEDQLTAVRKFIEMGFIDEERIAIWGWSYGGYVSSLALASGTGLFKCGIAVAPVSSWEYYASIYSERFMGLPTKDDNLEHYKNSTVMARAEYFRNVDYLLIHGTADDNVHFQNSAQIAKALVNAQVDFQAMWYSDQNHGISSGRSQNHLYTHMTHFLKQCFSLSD
In words: flow cytometry on murine FAP-transfected HEK293 cells, VHH-containing bacterial extract, anti-HA and PE-conjugated secondary detection, Δmfi against cells without VHH. The procedure: The cell binding was tested by flow cytometry experiments. Per test condition 1×10⁵ to 2×10⁵ cells, washed in PBS, 0.5% BSA, were pelleted in the well of a 96-well U-bottom plate. The cell pellets were resuspended and incubated with the VHH-containing bacterial freeze-thaw extracts (diluted in PBS, 0.5% BSA). Binding of HA-His₆-tagged VHHs was detected by using mouse anti-HA.11 epitope tag (clone 16B12, Biolegend) as the primary detection antibody and PE-conjugated rat anti-mouse IgG1 (clone A85-1, BD Pharmingen) as the secondary detection antibody, with washing with PBS, 0.5% BSA in between, and finally resuspended in PBS, 0.5% BSA.
Flow cytometry was performed on a FACS Canto II (BD Biosciences). Data were analyzed using FlowJo software. Based on the forward scatter-side scatter plot a single cell gate was drawn. The median fluorescence intensity was determined on a histogram for the phycoerythrin signal of the single cells. The difference in median fluorescence intensity (A mfi) was calculated relative to a test condition without incubation of VHHs (cells+primary Ab+secondary Ab), and are shown in FIG. 3.

Test [5] has as its target T1, human FAP recombinant protein. In words: ELISA, coated human FAP recombinant protein, HA-His6-tagged VHH extract, anti-HA detection. The procedure:
(§4) The day before measurement, 0.1 μg recombinant protein at a concentration of 1 μg/mL in 100 mM NaHCO₃, pH 8.2 was coated in a 96-well ELISA plate (Nunc MaxiSorp). Per VHH clone also a blank coated well was foreseen (only buffer). The wells were overcoated with protein-free T20 (PBS) blocking buffer (Pierce). After washing with PBS, pH7.4, 0.05% Tween, VHH-containing bacterial freeze-thaw extract was added to every well. Binding of HA-His₆-tagged VHHs was detected by using mouse anti-HA.11 epitope tag (clone 16B12, Biolegend) as the primary Ab and goat anti-mouse IgG (whole molecule) alkaline phosphatase conjugate (Sigma-Aldrich) as the secondary Ab, with thorough washing with PBS, pH 7.4, 0.05% Tween in between. Signals were developed using phosphatase substrate (Sigma-Aldrich) in AP blot buffer (100 mM NaCl, 50 mM MgCl₂, 100 mM Tris, pH 9.5). The absorbance was determined at 405 nm using an absorbance microplate reader (Molecular Devices). Per clone the ratio was determined between the absorbance in the antigen-coated well versus the well without antigen.
On the technique in general: An ELISA detects its analyte on a solid surface through an enzyme-linked reagent.

Test [6] deals with T4, human DPP IV recombinant protein (human, UniProt P27487 29-766).
T4 construct: extracellular domain; Bought protein; also called Dipeptidyl amino-peptidase IV
As to the kind of experiment: ELISA on coated recombinant protein, VHH-containing bacterial extract, anti-HA detection, signal-to-background ratio. How it is done: as §4

In test [7] the target is T2, murine FAP recombinant protein. The test is described as above. The procedure: as §4
For test [8], the target named is T4, human DPP IV recombinant protein. In words: ELISA, coated human DPP IV, HA-His6-tagged VHH extract, anti-HA detection. How it is done: as §4

Some results are limits rather than exact numbers.

T4 sequence (P27487 29-766): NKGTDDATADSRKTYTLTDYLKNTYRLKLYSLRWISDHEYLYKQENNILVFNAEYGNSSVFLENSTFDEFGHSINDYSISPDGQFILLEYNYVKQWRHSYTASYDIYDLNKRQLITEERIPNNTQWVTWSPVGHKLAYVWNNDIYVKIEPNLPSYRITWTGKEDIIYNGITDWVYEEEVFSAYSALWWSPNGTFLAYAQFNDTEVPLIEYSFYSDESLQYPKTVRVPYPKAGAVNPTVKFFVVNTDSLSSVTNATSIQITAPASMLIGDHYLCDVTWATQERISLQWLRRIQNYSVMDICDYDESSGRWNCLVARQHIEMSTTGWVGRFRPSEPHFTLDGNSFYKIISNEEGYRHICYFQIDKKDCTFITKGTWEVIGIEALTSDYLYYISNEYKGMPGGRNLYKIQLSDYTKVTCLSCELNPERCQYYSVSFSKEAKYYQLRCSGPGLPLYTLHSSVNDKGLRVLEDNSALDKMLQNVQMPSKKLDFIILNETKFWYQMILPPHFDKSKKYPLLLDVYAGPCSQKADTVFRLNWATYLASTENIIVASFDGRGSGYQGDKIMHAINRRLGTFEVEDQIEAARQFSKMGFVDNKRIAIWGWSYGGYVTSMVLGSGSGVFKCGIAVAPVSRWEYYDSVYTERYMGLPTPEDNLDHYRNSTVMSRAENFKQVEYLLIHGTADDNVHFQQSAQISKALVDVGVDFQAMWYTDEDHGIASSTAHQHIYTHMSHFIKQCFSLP

B1: His6-tagged VHH B1 (VHH)
VHH: DVQLVESGGGLVQPGGSLRLSCVASGRLSSSNSMAWYRQVPGKRRELVAGITGGGETNYADFVGGRFTISRDNAKNGLYLQLNGLKPEDTAAYYCNFWPPLINYWGQGTQVTVSS
notes: Purified, unlabelled; used in bio-layer interferometry; also called B1 with His6-tag
Consider B1, for which the Kd in test [1] is < 50 pM. Besides, in test [2], the Kd stood at 742 pM, the koff was found to be 0.0014 s⁻¹ and the kon turned out to be 1.9e+06 M⁻¹ s⁻¹. In addition, in test [3], the Kd was 37.8 pM, the koff was 2.7e-05 s⁻¹ and the kon is 700000 M⁻¹ s⁻¹.

B2: HA-His6-tagged VHH B3 (VHH)
VHH: QVQLQESGGGLVQAGGSLRLSCAVSGRLFSTNAMGWYRQAPGKQRELVAGITGGDRSNYADSVKGRFTISRDNGKNTLYLQMNSLKPEDTAVYYCNFYPPIVGDYWGQGTQVTVSS
notes: also called B3 with HA-His6-tag
As to B2, the binding result in test [4], in test [6] and in test [7] was “no binding” each time. The values for the signal-to-background ratio in test [5] and in test [8] were > 25 and ~1, respectively.

The record behind these values is US20230381350A1 (PRECIRIX N V, published 2023).
